T1: MSMEG_3765 (TetR3765) (Mycobacterium smegmatis mc2155) (UniProt A0QYS0)
T1 sequence: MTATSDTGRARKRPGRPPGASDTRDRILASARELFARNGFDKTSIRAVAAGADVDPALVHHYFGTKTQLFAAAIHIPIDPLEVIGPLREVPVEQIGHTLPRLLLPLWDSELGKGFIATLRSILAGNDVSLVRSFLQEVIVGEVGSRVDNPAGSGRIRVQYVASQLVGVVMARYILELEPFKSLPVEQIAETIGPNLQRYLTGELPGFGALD

T2: MSMEG_3765 (TetR3765) (Mycobacterium smegmatis mc2155, UniProt A0QYS0 1-211)
T2 sequence: T1 sequence

B1: fragment d 36 bp TetR motif (dsDNA)
DNA 1: AATTCATTGCATGATGACTTCATCGCGCGATGAATT
DNA 2: AATTCATCGCGCGATGAAGTCATCATGCAATGAATT

target: T1, MSMEG_3765 (TetR3765) (Mycobacterium smegmatis mc2155); assay: EMSA; settings: 40 mM HEPES pH 8.0, 150 mM NaCl, 20 mM MgCl2, 10% glycerol, 37 C, 20 min; 8% native PAGE, SYBR Safe

| Molecule | binding |
| --- | --- |
| CCGGATCCGACCTCGACCACCATCGCACGCACACCCCGTCCGGCAATAGTTGCGCCGAGCAGCCGATGCGCGGCCGCGACCGGGTCGATCGCCAGTTCCTCAGCGTTCATCAGAGACGATTGTGCACCGGCCCTTGACAAACCCGCACGACTGGCGGATATTCATCACATGATGATTTCATCAAGTGATGAATTACTTCGCGACGGTGGGGCCCG (double strand) [Rv1687c upstream fragment 200 bp] | binds |
| CGGGATCCGATCCTGCGGGGCGCCGACGACCACACGCTGTCGCTGATCACCGAGTACGTCGACGTCGCACGGTTGCGGGCCGACATTATCGGCCTGCTGGAGTCCGCCGCCTGAGCCAGGCGTCGCCGACGCCGAAATGTGTCGACGCATCGTCTTCCCACCGGACGACGGCAGGCCTAGAATTCATTGC (double strand) [fragment b 182 bp] | no binding |
| CGGGATCCGATCCTGCGGGGCGCCGACGACCACACGCTGTCGCTGATCACCGAGTACGTCGACGTCGCACGGTTGCGGGCCGACATTATCGGCCTGCTGGAGTCCGCCGCCTGAGCCAGGCGTCGCCGACGCCGAAATGTGTCGACGCATCGTCTTCCCACCGGACGACGGCAGGCCTAGAATTCATTGCATGATGACTTCATCGCGCGATGAATTGTCAGCGACGGGGCCCG (double strand) [MSMEG_3762 upstream fragment 218 bp] | binds |
| CGGGCCCGATCCACGCTGGCCATGGCATCGGTGGTCGGTTCGTCGCTCATGTCGTCAAGTTAGCTTGACGACATGAGCGGCGTCAAGAAAACTTGACACAAAAGGAACAGGCACAATCGCATCGATGAGCGTCGACCTGCTGACCGGTGATCCGATCGCCGCGGCACGTCGGCTGATCGGCGCCCACCTCGTCGGGCGGGACGTCACCGCCACGATCGTCGAGGTCGAGGCCTACGGCGGACCGCCGGACGGCCCGTGGCCGGACGCGGCGTCGCATTCGTTCCGGATCCCG (double strand) [MSMEG_3760 upstream fragment (from GFP assay) 277 bp] | no binding |
| CTGCTGGAGTCCGCCGCCTGAGCCAGGCGTCGCCGACGCCGAAATGTGTCGACGCATCGTCTTCCCACCGGACGACGGCAGGCCTAGAATTCATTGC (double strand) [fragment c 97 bp] | no binding |
| CTGCTGGAGTCCGCCGCCTGAGCCAGGCGTCGCCGACGCCGAAATGTGTCGACGCATCGTCTTCCCACCGGACGACGGCAGGCCTAGAATTCATTGCATGATGACTTCATCGCGCGATGAATTGTCAGCGACGGGGCCCG (double strand) [fragment a 133 bp] | binds |
| GACGCTCATCGATGCGATTGTGCCTGTTCCTTTTGTGTCAAGTTTTCTTGACGCCGCTCATGTCGTCAAGCTAACTTGACGACATGAGCGACGAACCGACCACCGATGCCATGGCCAGCGTGGATCGGGCCCG (double strand) [MSMEG_3760 upstream fragment 127 bp (negative control)] | no binding |

target: T2, MSMEG_3765 (TetR3765); assay: EMSA; 1.5-20 pmol protein; 40 mM HEPES pH 8.0, 150 mM NaCl, 20 mM MgCl2, 10% glycerol, 37 C, 20 min; 8% native PAGE, SYBR Safe; settings: protein: recombinant; tags: C-terminal His (pET-22b(+), NdeI-XhoI); chain copies: 2

| Molecule | binding result |
| --- | --- |
| B1 | binds |
